Results taken from article PMC12024694, “RNA Binding to CCRRM of PABPN1 Induces Conformation Change”.

How the values were obtained:
[1] = molecular target: T1, PABPN1 CCRRM fragment (coiled coil + RRM) (UniProt Q86U42 114-254); assay: EMSA; 50 uM RNA; protein:RNA ratio 0 to 5; EMSA and SHAPE: 10 mM Tris-HCl pH 8.0, 25 mM KCl, 10 mM NaCl, 1 mM MgCl2, 10% glycerol, 0.5 mM DTT, 25 C, 20 min (1M7 step at 35 C); BLI: room temperature, 0.5; settings: protein: recombinant; tags: Trx and His (Ni-NTA) fusion, pET-MG vector
T1 sequence: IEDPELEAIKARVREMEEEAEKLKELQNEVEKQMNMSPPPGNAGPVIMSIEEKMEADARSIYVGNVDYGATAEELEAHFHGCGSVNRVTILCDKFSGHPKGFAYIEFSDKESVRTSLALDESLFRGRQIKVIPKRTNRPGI

[2] = molecular target: T1, PABPN1 CCRRM fragment (coiled coil + …); assay: BLI; kon 3.589e-5 (so in the source), koff 1.34e-3 s-1; room temperature; EMSA and SHAPE: 10 mM Tris-HCl pH 8.0, 25 mM KCl, 10 mM NaCl, 1 mM MgCl2, 10% glycerol, 0.5 mM DTT, 25 C, 20 min (1M7 step at 35 C); BLI: room temperature, 0.5; settings: protein: recombinant; tags: Trx and His (Ni-NTA) fusion, pET-MG vector; label: 5' biotin
[3] = molecular target: T1, PABPN1 CCRRM fragment (coiled coil + …); assay: BLI; kon 4.1e-5 (so in the source), koff 1.71e-3 s-1; text ranks A12 lowest affinity, inconsistent with values; EMSA and SHAPE: 10 mM Tris-HCl pH 8.0, 25 mM KCl, 10 mM NaCl, 1 mM MgCl2, 10% glycerol, 0.5 mM DTT, 25 C, 20 min (1M7 step at 35 C); BLI: room temperature, 0.5; settings: protein: recombinant; tags: Trx and His (Ni-NTA) fusion, pET-MG vector; label: 5' biotin
[4] = molecular target: T1, PABPN1 CCRRM fragment (coiled coil + …); assay: SHAPE footprinting (1M7); A-rich protected, CU-rich partly protected; CA-rich and GU-rich stable, AU-rich more reactive; text elsewhere calls GU-rich moderate affinity; EMSA and SHAPE: 10 mM Tris-HCl pH 8.0, 25 mM KCl, 10 mM NaCl, 1 mM MgCl2, 10% glycerol, 0.5 mM DTT, 25 C, 20 min (1M7 step at 35 C); BLI: room temperature, 0.5; settings: protein: recombinant; tags: Trx and His (Ni-NTA) fusion, pET-MG vector
[5] = molecular target: T1, PABPN1 CCRRM fragment (coiled coil + …); assay: EMSA; 40 uM RNA; protein:RNA ratio 0 to 10; EMSA and SHAPE: 10 mM Tris-HCl pH 8.0, 25 mM KCl, 10 mM NaCl, 1 mM MgCl2, 10% glycerol, 0.5 mM DTT, 25 C, 20 min (1M7 step at 35 C); BLI: room temperature, 0.5; settings: protein: recombinant; tags: Trx and His (Ni-NTA) fusion, pET-MG vector
[6] = molecular target: T1, PABPN1 CCRRM fragment (coiled coil + …); assay: BLI; kon 4.24e-5 (so in the source), koff 2.031e-3 s-1; text ranks A18 intermediate, inconsistent with values; EMSA and SHAPE: 10 mM Tris-HCl pH 8.0, 25 mM KCl, 10 mM NaCl, 1 mM MgCl2, 10% glycerol, 0.5 mM DTT, 25 C, 20 min (1M7 step at 35 C); BLI: room temperature, 0.5; settings: protein: recombinant; tags: Trx and His (Ni-NTA) fusion, pET-MG vector; label: 5' biotin

B1: A-rich RNA (ssRNA)
RNA: UAAUACGACUCACUAUAGGGUGGUCAGUCGAGUGGAAAAAAAAAAAAAAAAAAGGGCGGCAUGGUCCCAGCCUCCU
B1: binds [1].

B2: A6 (ssRNA)
RNA: AAAAAA
Binder B2 has a Kd [2] of 3.38 nM.

B3: A12 (ssRNA)
RNA: AAAAAAAAAAAA
With B3 the Kd [3] was 4.17 nM.

B4: RE_A-rich RNA (structured_RNA)
RNA: CCUUCGGGCCAAAUUUAUUUAUUUAUUUAUUUAGCUGACGAUAAAAAAAAAAAAAAAAAACCACACACACAGGAAUCGACUCUGUUUGUUUGUGUUUGUUUGUACUGAAUUGGCACUUUUCCCCUUUUCCCUUUCUGGACUGGCAUCGAUCCGGUUCGCCGGAUCCAAAUCGGGCUUCGGUCCGGUUC
B4: binds [4].

B5: U-rich RNA (ssRNA)
RNA: UAAUACGACUCACUAUAGGGUGGUCAGUCGAGUGGUUUUUUUUUUUUUUUUUUGGGCGGCAUGGUCCCAGCCUCCU
B5: no binding [5].

B6: A18 (ssRNA)
RNA: AAAAAAAAAAAAAAAAAA
Work on B6 yielded a Kd [6] of 4.79 nM.
